B1: library; numbered along this chain (parent)
chain: MRKPRAAVGSGHRKQAASQEGRQKHAKNNSQAKPSACDGLARQPEEVVLQASVSSYHLFRDVAEVTAFRGSLLSWYDQEKRDLPWRRRAEDEMDLDRRAYAVWVSEVMLQQTQVATVINYYTGWMQKWPTLQDLASASLEEVNQLWAGLGYYSRGRRLQEGARKVVEELGGHMPRTAETLQQLLPGVGRYTAGAIASIAFGQATGVVDGNVARVLCRVRAIGADPSSTLVSQQLWGLAQQLVDPARPGDFNQAAMELGATVCTPQRPLCSQCPVESLCRARQRVEQEQLLASGSLSGSPDVEECAPNTGQCHLCLPPSEPWDQTLGVVNFPRKASRKPPREESSATCVLEQPGALGAQILLVQRPNSGLLAGLWEFPSVTWEPSEQLQRKALLQELQRWAGPLPATHLRHLGEVVHTFSHIKLTYQVYGLALEGQTPVTTVPPGARWLTQEEFHTAAVSTAMKKVFRVYQGQQPGTCMGSKRSQVSSPCSRKKPRMGQQVLDNFFRSHISTDAHSLNSAAQ

Variants of: B1
Assay: 8OG:A repair function score (normalized; synonymous = 0, nonsense = -1) (normalized log-likelihood score); higher = more repair activity (WT-like)
Conditions: with 8OG:A DNA repair reporter (GFP) in HEK-293 MUTYH KO cells
Method in brief: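 With 10 pg/ml doxycycline, MUTYH knockout HEK-293 cells carrying lentiviral MUTYH cDNA NNN codon-scan libraries were co-transfected with mCherry and an 8OG:A GFP repair reporter. Viable mCherry+ cells were sorted into GFP+ (repair) and GFP− bins at 72 h, three replicates per tile, and tile amplicons were sequenced. Per-tile Rosace fitness scores were then normalized into a repair function score anchored on synonymous and nonsense distributions. Medians were fixed at 0 for synonymous and -1 for nonsense, excluding variants under 300 counts per million at the start.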

8OG:A repair function score of substitutions, site by site:
A520: T -0.000144, P 0.0147, M 0.0283, S -0.0114, W -0.0228, V -0.0172, N 0.0153, R 0.027, I -0.0239, L -0.0269, Q 0.00885, Y 0.0286, K 0.00969
Q521: W 0.00491, T -0.0167, G -0.018, E 0.00527, S -0.00358, R -0.0139, H 0.0162, N 0.00751, I -0.0216, F -0.0187, C 0.00296, P -0.0312, V -0.0096, Y 0.025, K -0.0417, D -0.0822, A 0.0136, M 0.0277, L -0.0455

Source: the supplement of paper PMC11908140
